Consider one molecule from article PMC12717039, “Novel mutations in the RECQL4 gene affect its helicase functions, interactions with the BLM helicase and chemotherapeutics-induced cell death”.

In one data set the target is T1, RECQL4 427-1116 WT (Homo sapiens, UniProt O94761 427-1116).
T1 sequence: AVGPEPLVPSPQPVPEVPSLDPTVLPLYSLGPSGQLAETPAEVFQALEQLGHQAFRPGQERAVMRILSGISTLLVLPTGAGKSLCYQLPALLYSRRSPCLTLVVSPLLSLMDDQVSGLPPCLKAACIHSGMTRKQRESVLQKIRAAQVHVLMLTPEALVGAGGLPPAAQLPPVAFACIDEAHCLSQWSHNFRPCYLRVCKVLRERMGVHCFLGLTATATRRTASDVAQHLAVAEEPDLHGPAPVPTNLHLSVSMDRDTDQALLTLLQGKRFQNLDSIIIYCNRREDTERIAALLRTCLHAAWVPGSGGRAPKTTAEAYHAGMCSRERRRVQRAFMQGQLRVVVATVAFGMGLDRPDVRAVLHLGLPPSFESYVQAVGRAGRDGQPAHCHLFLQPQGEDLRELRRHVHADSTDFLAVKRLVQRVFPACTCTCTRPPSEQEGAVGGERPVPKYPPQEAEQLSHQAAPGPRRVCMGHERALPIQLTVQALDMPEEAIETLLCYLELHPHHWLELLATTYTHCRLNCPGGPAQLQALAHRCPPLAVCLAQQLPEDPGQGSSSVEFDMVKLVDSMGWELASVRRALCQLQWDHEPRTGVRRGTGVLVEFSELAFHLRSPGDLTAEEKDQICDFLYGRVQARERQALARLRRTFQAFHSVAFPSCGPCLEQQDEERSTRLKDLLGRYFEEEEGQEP
Briefly: MST; 5 mM Mg2+; no ATP mentioned; Kd only in figure; Buffer D: 10 mM HEPES pH 7.5, 50 mM NaCl, 5 mM MgCl2, 2 mM DTT (EMSA, 100 nM Cy3-DNA, 6% native PAGE); MST with 10 nM Cy5-DNA, buffer not restated; temperature. The note with it: protein: recombinant; tags: GST tag removed by TEV; label: 5' Cy5 on strand 1; 3' overhang 15 nt on strand 1, 15 bp duplex. For orientation: A gel shift assay detects complexes by their altered migration in electrophoresis.

The target in another data set is T2, RECQL4 427-1116 P532S (Homo sapiens, UniProt O94761 427-1116, P532S).
T2 sequence: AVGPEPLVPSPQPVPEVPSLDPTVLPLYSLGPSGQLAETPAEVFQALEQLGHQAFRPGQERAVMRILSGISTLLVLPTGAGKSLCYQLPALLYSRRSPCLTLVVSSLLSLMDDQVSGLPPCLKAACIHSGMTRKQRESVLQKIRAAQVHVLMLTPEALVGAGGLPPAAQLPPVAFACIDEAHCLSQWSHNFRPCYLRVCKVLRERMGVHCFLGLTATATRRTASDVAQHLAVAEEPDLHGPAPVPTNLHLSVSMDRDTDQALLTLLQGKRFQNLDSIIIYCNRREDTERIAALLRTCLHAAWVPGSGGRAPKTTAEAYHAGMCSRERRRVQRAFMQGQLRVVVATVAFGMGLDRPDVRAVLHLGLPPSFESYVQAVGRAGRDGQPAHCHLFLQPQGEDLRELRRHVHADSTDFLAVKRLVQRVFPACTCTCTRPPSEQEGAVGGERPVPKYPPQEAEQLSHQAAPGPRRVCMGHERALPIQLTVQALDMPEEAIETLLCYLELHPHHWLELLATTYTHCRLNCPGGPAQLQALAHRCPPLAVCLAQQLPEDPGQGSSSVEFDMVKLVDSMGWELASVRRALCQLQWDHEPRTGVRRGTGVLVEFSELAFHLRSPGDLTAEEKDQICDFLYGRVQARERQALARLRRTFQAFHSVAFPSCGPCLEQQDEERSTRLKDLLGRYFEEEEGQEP
The data set is described as above. The note with it: protein: recombinant; tags: GST tag removed by TEV; label: 5' Cy5 on strand 1; 3' overhang 15 nt on strand 1, 15 bp duplex.

B1: OH-Cy5/CQ dsDNA with 3' ss overhang (MST) (dsDNA)
DNA 1: CCATTCCACCCTCTATTTTTTTTTTTTTTT
DNA 2: TAGAGGGTGGAATGG
As for B1, the binding result with RECQL4 427-1116 WT and with RECQL4 427-1116 P532S was “binds” throughout.
